Measurements taken from patent publication US8815798B2, “Insulin analogues containing additional disulfide bonds” (priority 2010, dated 2014).
Each block holds one substance with its values, some of them ahead of it.

Experiments:
[1] = target: T1, Human Insulin Receptor A (Homo sapiens, UniProt P06213); experiment: Insulin receptor binding assay (on solubilised insulin receptor), SPA; settings: SPA competition with [125I]A14Tyr-labelled insulin, solubilized human IR-A
T1 construct: solubilized human IR (holoreceptor); made in house; host or cells: baby hamster kidney (BHK) cells stably transfected with pZem vector containing the human IR-A insert
Description: (2008), Biochemistry, 47, 4743-4751). Competition binding experiments were performed in 96-well plates (polystyrene Optiplate-96, PerkinElmer) on an Eppendorf epMotion 5075 robot using solubilized human IR (holoreceptor) semipurified by wheat germ agglutinin purification from baby hamster kidney (BHK) cells, which were stably transfected with the pZem vector containing the human IR-A or IR-B insert. […] A reagent mix consisting of SPA beads (SPA PVT Antibody-Binding Beads, Anti-Mouse Reagent Cat. No. […] (2008), Biochemistry, 47, 4743-4751). Competition binding experiments were performed in 96-well plates (polystyrene OPTIPLATE-96TM, PerkinElmer) on an Eppendorf EPMOTION® 5075 robot using solubilized human IR (holoreceptor) semipurified by wheat germ agglutinin purification from baby hamster kidney (BHK) cells, which were stably transfected with the pZem vector containing the human IR-A or IR-B insert. […] A reagent mix consisting of SPA beads (SPA PVT Antibody-Binding Beads, Anti-Mouse Reagent Cat. No.

[2] = Thioflavin T (ThT) fibrillation assay; type: physicochemical; settings: mean of four samples with standard deviation, 37° C., 960 rpm
Text: General Procedure for Thioflavin T (ThT) Fibrillation Assay:
This has traditionally been measured by visual inspection of the sample. However, that kind of measurement is very subjective and depending on the observer. Therefore the application of a small molecule indicator probe is much preferred. […] The time course for fibril formation can be described by a sigmoidal curve with the following expression (Nielsen at al. Biochemistry 40, 6036-6046, 2001):
Here, F is the ThT fluorescence at the time t. The constant t0 is the time needed to reach 50% of maximum fluorescence.
Samples were prepared freshly before each assay. […] Thioflavin T was added to the samples from a stock solution in water to a final concentration of 1 μM. Sample aliquots of 200 μl were placed in a 96 well microtiter plate (Packard Optiplate™-96, white polystyrene). Usually four replica of each sample (corresponding to one test condition) were placed in one column of wells. The plate was sealed with Scotch Pad (Qiagen).
The temperature was adjusted to 37° C. […] Fluorescence measurements were done using excitation through a 444 nm filter and measurement of emission through a 485 nm filter.
Each run was initiated by incubating the plate at the assay temperature for 10 min. The plate was measured every 20 minutes for typically 45 hours. Between each measurement, the plate was shaken and heated as described above.
The data points are typically a mean of four samples. Only data obtained in the same experiment (i.e. samples on the same plate) are presented in the same graph ensuring a relative measure of fibrillation between the individual samples of one assay rather then comparison between different assays.
The data set may be fitted to Eq. (1).

[3] = test system: Primary rat adipocytes; experiment: Lipogenesis in rat adipocytes; type: cell-based; settings: 3H-glucose conversion into extractable lipids; relative potency compared to human insulin
Text: As a measure of in vitro potency of the insulins of the invention, lipogenesis can be used.
The labelled glucose is converted into extractable lipids in a dose dependent way, resulting in full dose response curves.

[4] = Hydrophobicity by isocratic reverse phase HPLC (k'rel); type: physicochemical; settings: hydrophobicity relative to human insulin (k'rel HI = 1); isocratic RP-HPLC, pH 7.3
Description: The hydrophobicity, k′rel, is calculated as: k′relderiv=((tderiv−t0)/(trel−t0))*k′relref. Using HI as reference: k′relref=k′relHI=1. The void time of the HPLC system, t0, is determined by injecting 5 μl of 0.1 mM NaNO3. Running conditions:
Column: Lichrosorb RP-C18, 5 μm, 4×250 mm
Buffer A: 0.1 M natrium phosphate pH 7.3, 10 vol % CH3CN
After running an initial gradient, the isocratic level for running the analogue and reference (for example HI) is chosen, and the elution times of the analogue and reference under isocratic conditions are used in the above equation to calculate k′relderiv.

T1 sequence (P06213 28-746 isoform P06213-2 limits assumed): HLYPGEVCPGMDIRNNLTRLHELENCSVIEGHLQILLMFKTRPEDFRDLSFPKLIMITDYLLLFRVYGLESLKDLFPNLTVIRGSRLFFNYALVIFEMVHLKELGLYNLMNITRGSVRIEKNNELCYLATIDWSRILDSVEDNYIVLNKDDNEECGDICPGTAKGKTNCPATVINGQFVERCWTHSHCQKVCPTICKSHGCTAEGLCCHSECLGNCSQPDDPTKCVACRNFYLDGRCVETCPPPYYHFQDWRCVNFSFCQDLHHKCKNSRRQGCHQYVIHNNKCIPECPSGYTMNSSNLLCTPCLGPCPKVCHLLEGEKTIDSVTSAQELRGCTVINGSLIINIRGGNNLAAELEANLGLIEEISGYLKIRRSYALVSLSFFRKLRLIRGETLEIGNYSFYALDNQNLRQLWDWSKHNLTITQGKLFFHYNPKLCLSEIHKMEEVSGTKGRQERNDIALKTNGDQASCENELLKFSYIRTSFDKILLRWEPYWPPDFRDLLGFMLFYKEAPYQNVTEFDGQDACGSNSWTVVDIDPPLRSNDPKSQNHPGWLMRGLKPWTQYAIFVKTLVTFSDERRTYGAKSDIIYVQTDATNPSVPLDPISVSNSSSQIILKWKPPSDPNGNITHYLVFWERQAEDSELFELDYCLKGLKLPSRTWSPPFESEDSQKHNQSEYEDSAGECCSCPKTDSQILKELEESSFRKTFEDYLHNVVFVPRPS
T1 sequence (P06213 763-1382 partner limits assumed): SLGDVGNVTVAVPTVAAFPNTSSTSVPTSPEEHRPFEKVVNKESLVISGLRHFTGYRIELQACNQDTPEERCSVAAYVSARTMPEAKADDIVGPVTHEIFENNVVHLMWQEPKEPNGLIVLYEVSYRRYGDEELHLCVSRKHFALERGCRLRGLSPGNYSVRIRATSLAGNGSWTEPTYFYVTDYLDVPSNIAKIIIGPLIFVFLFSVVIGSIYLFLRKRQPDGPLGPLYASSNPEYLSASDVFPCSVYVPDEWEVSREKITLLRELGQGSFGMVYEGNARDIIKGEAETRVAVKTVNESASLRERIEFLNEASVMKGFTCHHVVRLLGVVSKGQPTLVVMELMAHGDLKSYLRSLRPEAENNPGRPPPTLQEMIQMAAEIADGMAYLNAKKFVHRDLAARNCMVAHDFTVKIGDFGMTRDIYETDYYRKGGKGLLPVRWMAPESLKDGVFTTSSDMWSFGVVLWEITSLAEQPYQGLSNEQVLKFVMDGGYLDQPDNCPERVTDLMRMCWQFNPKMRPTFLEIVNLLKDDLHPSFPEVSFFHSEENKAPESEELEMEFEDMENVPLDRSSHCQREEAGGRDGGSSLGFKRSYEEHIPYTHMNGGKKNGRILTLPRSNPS

Relative Affinity to Human Insulin Receptor A (% HI) [1]: 80.0 % HI
Substance: A10C, A21G, B2C, B3E, B28E, desB30 human insulin [Example 17]

Relative Affinity to Human Insulin Receptor A (% HI) [1]: 10.0 % HI
Substance: A21C, B10E, B26C, desB30 human insulin [Example 78]

Substance: A10C, A22K, B3C, desB27, desB30 human insulin [Example 28]
ThT fluorescence, 0 h ([2]; 0 h): 35.8 ± 0.9
ThT fluorescence, 2 h ([2]; 2 h): 29.4 ± 1
ThT fluorescence, 20 h ([2]; 20 h): 27.6 ± 0.8
ThT fluorescence, 45 h ([2]; 45 h): 25 ± 0.7
Lipogenesis (potency rel to HI) [3]: 25.3%
k′-rel (human insulin) [4]: 0.0810

Relative Affinity to Human Insulin Receptor A (% HI) [1]: 20.0 % HI
Substance: A10C, A21G, B3C, desB27, B28E, desB30 human insulin [Example 23]
